This is an account of results in PMC10040874.

For orientation: Kd means the concentration at which binding is half-saturated.

B1: Drosophila melanogaster PRL (wild-type) [D. melanogaster] / Drosophila melanogaster CNNM CBS-pair domain, GST-tagged [D. melanogaster] (parent)
chain 1: MSITMRQKDLRPAPALIEYKGMKFLITDRPSDITINHYIMELKKNNVNTVVRVCEPSYNTDELETQGITVKDLAFEDGTFPPQQVVDEWFEVLKDKYQQNPEACVAVHCVAGLGRAPVLVALALIELGLKYEAAVEMIRDKRRGAINAKQLSFLEKYKPKARLKHKNGHKNSCSVQ
chain 2: VNIISGALELRKKTVADVMTHINDAFMLSLDALLDFETVSEIMNSGYSRIPVYDGDRKNIVTLLYIKDLAFVDTDDNTPLKTLCEFYQNPVHFVFEDYTLDIMFNQFKEGTIGHIAFVHRVNNEGDGDPFYETVGLVTLEDVIEELIQAEIVDE

In the test the parent is B1. Briefly: ITC. The settings on record: with Drosophila melanogaster CNNM CBS-pair domain, 16 µM CNNM titrated with 160 µM PRL.
In the case of chain 1 C109D, the Kd amounted to 0.6 µM.

Consider chain 1 R143E, for which the Kd was determined as 7.5 µM.
